According to patent US20140105889A1 (published 2014):
Where a chain is given by its changes, count along the chain named. In names and notes the source's numbering stands. Read-outs that look alike come from different tables or passages of the source. Blank lines part the entries; values can stand above or below the binder they belong to.

Tests used:
[1] = biological target: T1, human FcγRIIIa(F) (human, UniProt P08637 17-208, limits assumed); test: SPR (Biacore), antibody captured by Protein L, FcγR as analyte, pH 7.4, 25°C; amount normalised to captured antibody
T1 construct: also called FcgRIIIaF; hFcgRIIIa(F)
T1 sequence (P08637 other isoform, or with tags, fused parts or gaps limits assumed): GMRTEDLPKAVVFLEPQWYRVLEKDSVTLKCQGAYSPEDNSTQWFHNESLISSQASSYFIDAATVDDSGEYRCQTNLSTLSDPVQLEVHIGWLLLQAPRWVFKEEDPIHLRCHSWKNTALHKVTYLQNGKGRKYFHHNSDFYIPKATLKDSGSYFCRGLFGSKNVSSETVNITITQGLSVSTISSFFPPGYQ
Procedure: Binding activity between the antibodies and human FcγRIa, FcγRIIa(H), FcγRIIa(R), FcγRIIb and FcγRIIIa(F) (hereinafter referred to as human FcγRs) was evaluated using the Biacore T100 or T200 (GE Healthcare). The antibodies being tested were captured by Protein L (ACTIGEN) that was immobilized in suitable amounts on the CM4 Sensor Chip (GE Healthcare) by amine coupling. Next, the diluted human FcγRs and a running buffer used as a blank were injected to allow interaction with the antibodies captured on the sensor chip. A buffer consisting of 20 mmol/L ACES, 150 mmol/L NaCl and 0.05% (w/v) Tween 20 (pH 7.4) was used for the running buffer, and this buffer was also used to dilute the human FcγRs. 10 mmol/L glycine-HCl (pH 1.5) was used to regenerate the sensor chip. All measurements were carried out at 25° C.

[2] = biological target: T2, mouse FcγRIV (mouse); test: SPR (Biacore), antibody captured on Protein L, mouse FcγR as analyte, pH 7.4, 25 C
T2 construct: Bought soluble receptor; also called mFcgRIV; mFcgR IV
T2 sequence (A0A0B4J1G0 21-203): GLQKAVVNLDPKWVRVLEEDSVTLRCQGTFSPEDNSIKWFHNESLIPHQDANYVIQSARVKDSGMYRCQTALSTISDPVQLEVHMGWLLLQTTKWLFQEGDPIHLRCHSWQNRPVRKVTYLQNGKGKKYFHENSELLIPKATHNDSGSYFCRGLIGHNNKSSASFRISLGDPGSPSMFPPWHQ
Procedure: (§1) Binding activity between the antibodies and mouse FcγRI, FcγRII, FcγRIII and FcγRIV (R&D Systems, Sin θ Biological) (hereinafter referred to as mouse FcγRs) was evaluated using the Biacore T100 or T200 (GE Healthcare). The antibodies being tested were captured by Protein L (ACTIGEN) that was immobilized in suitable amounts on the CM4 Sensor Chip (GE Healthcare) by amine coupling. Next, the diluted mouse FcγRs and a running buffer used as a blank were injected to allow interaction with the antibody captured on the sensor chip. A buffer consisting of 20 mmol/L ACES, 150 mmol/L NaCl and 0.05% (w/v) Tween 20 (pH 7.4) was used for the running buffer, and this buffer was also used to dilute the mouse FcγRs. 10 mmol/L glycine-HCl (pH 1.5) was used to regenerate the sensor chip. All measurements were carried out at 25° C.
Binding activity to mouse FcγRs can be represented by the relative binding activity to mouse FcγRs. Antibody was captured by Protein L, and the amount of change in a sensorgram before and after the antibody was captured was defined as X1. Next, mouse FcγRs were allowed to interact with the antibody, and the value obtained by subtracting binding activity of mouse FcγRs represented as the amount of change in a sensorgram before and after allowing the running buffer to interact with antibody captured by Protein L (ΔA2) from the value obtained by multiplying by 1500 the value obtained by dividing the binding activity of mouse FcγRs represented as the amount of change in a sensorgram before and after that interaction (ΔA1) by the captured amount (X) of each antibody, was divided by the captured amount of each antibody (X) followed by multiplying by 1500 to obtain the binding activity of the mouse FcγRs (Y) (Equation 1).

[3] = biological target: T3, human FcRn (human); test: SPR (Biacore), pH 7.0, 25 C, antibody captured by Protein L, human FcRn as analyte
T3 construct: also called hFcRn; soluble human FcRn complexed with β2-microglobulin
Procedure: A kinetic analysis of binding between human FcRn and the aforementioned antibodies was carried out using the Biacore T100 or T200 (GE Healthcare). The antibodies being tested were captured on the CM4 Sensor Chip (GE Healthcare) on which a suitable amount of Protein L (ACTIGEN) was suitably immobilized by amine coupling. Next, diluted human FcRn and a running buffer used as a blank were injected to allow the human FcRn to interact with the antibody captured on the sensor chip. A buffer consisting of 50 mmol/L sodium phosphate, 150 mmol/L NaCl and 0.05% (w/v) Tween 20 (pH 7.0 or pH 7.4) was used for the running buffer, and each buffer was also used to dilute the human FcRn. 10 mmol/L glycine-HCl (pH 1.5) was used to regenerate the sensor chip. All measurements of binding were carried out at 25° C. The KD(M) of each antibody to human FcRn was calculated based on kinetics parameters, i.e., the association rate constant ka (1/Ms) and the dissociation rate constant kd (1/s) calculated from a sensorgram obtained by the measurement. The Biacore T100 or T200 Evaluation Software (GE Healthcare) was used to calculate each parameter.

[4] = biological target: T4, FcγRIIb (human, UniProt P31994 43-217, limits assumed); test: ratio of SPR KD values of this variant (FcγRIIaR over FcγRIIb)
T4 construct: also called FcγIIB; FcgRIIb
T4 sequence: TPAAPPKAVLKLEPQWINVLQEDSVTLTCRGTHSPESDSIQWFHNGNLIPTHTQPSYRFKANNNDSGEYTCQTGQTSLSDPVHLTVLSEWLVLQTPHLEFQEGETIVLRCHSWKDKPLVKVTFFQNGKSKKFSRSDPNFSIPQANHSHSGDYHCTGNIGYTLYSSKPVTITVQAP
Source text: (§2) Furthermore, KD(IIaR)/KD(IIb) and KD(IIaH)/KD(IIb) in the table respectively represent the value obtained by dividing the KD value of each variant for FcγRIIaR by the KD value of each variant for FcγRIIb, and the value obtained by dividing the KD value of each variant for FcγRIIaH by the KD value of each variant for FcγRIIb.

[5] = biological target: T5, FcγRIIa type H (human, UniProt P12318 36-217); test: SPR (Biacore), captured antibody, FcγR as analyte, method of Example 14
T5 construct: also called FcγRIIaH; FcγRIIa(H)
T5 sequence: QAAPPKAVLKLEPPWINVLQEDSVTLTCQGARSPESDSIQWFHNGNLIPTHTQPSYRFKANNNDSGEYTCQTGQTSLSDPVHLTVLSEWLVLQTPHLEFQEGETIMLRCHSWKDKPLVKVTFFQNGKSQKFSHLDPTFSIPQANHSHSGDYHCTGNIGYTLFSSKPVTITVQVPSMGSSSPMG

[6] = biological target: T6, FcγRIIIa type V (human, UniProt P08637 17-208, limits assumed); test: as above
T6 construct: also called FcγRIIIaV; FcγRIIIa(V)
T6 sequence (P08637 other isoform, or with tags, fused parts or gaps limits assumed): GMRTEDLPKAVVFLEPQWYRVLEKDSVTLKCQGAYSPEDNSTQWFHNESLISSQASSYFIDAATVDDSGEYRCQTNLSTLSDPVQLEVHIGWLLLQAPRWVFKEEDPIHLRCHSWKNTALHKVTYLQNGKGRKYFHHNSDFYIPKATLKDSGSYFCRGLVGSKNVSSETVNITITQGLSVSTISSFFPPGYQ

[7] = biological target: T4, FcγRIIb; test: ratio of SPR KD values of this variant (FcγRIIaH over FcγRIIb)
Source text: as §2

[8] = biological target: T7, FcγRIIIa type V (human, UniProt P08637 17-208, limits assumed); test: SPR (Biacore), antibody captured on chip, FcγR as analyte, method of Example 14
T7 construct: Soluble analyte in Biacore; also called FcγRIIIaV; FcγRIIIa(V)
Procedure: (§3) Next, interaction between these antibodies and FcγR was analyzed kinetically using the Biacore T100 (GE Healthcare). The interaction was measured at a temperature of 25° C. using HBS-EP+ (GE Healthcare) for the running buffer. The Series S Sensor Chip CM5 (GE Healthcare) was used after immobilizing Protein A by amine coupling. […] Antibody captured on the chip was washed by allowing 10 mM glycine-HCl (pH 1.5) to react following measurement. The chip regenerated in this manner was used repeatedly. The dissociation constant KD (mol/L) was calculated from the association rate constant ka (L/mol/s) and dissociation rate constant kd (1/s) as calculated by global-fitting the measurement results with a 1:1 Langmuir binding model using the Biacore

[9] = biological target: T8, FcγRIIb (human, UniProt P31994 43-217, limits assumed); test: as above
T8 construct: Soluble analyte in Biacore; also called FcgRIIb; FcγIIB
T8 sequence: T4 sequence
Procedure: as §3

[10] = biological target: T2, mouse FcγRIV; test: SPR (Biacore), antibody captured on Protein L, mouse FcγR as analyte, pH 7.4, 25 C; remark: listed apart in the source
Procedure: as §1

B1: antibody containing VH3-IgG2-F890 and L(WT)-CK (antibody)
heavy: QVQLQESGPGLVKPSETLSLTCAVSGHSISHDHAWSWVRQPPGEGLEWIGFISYSGITNYNPSLQGRVTISRDNSKNTLYLQMNSLRAEDTAVYYCARSLARTTAMDYWGEGTLVTVSSASTKGPSVFPLAPCSRSTSESTAALGCLVKDYFPEPVTVSWNSGALTSGVHTFPAVLQSSGLYSLSSVVTVPSSNFGTQTYTCNVDHKPSNTKVDKTVERKCCVECPPCPAPPVAGPSVFLFPPKPKDTLYISRTPEVTCVVVDVSHEDPEVQFNWYVDGVEVHNAKTKPREEQFNSTFRVVSVLTVVHQDWLNGKEYKCKVSNKGLPAPIEKTISKTKGQPREPQVYTLPPSREEMTKNQVSLTCLVKGFYPSDIAVEWESNGQPENNYKTTPPMLDSDGSFFLYSKLTVDKSRWQQGNVFSCSVMHEALHYHVTQKSLSLSP
light: not shown
notes: VH3-IgG2 with M252Y/N434Y/Y436V (EU numbering)
- BINDING AMOUNT (RU) [1]: 9.3 RU

B4: antibody containing VH3-IgG4-F890 and L(WT)-CK (antibody)
heavy: QVQLQESGPGLVKPSETLSLTCAVSGHSISHDHAWSWVRQPPGEGLEWIGFISYSGITNYNPSLQGRVTISRDNSKNTLYLQMNSLRAEDTAVYYCARSLARTTAMDYWGEGTLVTVSSASTKGPSVFPLAPCSRSTSESTAALGCLVKDYFPEPVTVSWNSGALTSGVHTFPAVLQSSGLYSLSSVVTVPSSSLGTKTYTCNVDHKPSNTKVDKRVESKYGPPCPPCPAPEFLGGPSVFLFPPKPKDTLYISRTPEVTCVVVDVSQEDPEVQFNWYVDGVEVHNAKTKPREEQFNSTYRVVSVLTVLHQDWLNGKEYKCKVSNKGLPSSIEKTISKAKGQPREPQVYTLPPSQEEMTKNQVSLTCLVKGFYPSDIAVEWESNGQPENNYKTTPPVLDSDGSFFLYSRLTVDKSRWQEGNVFSCSVMHEALHYHVTQKSLSLSL
light: not shown
notes: VH3-IgG4 with M252Y/N434Y/Y436V (EU numbering)
- BINDING AMOUNT (RU) [1]: 3.4 RU

B7: F1270 (antibody, name in EU numbering)
heavy: QVQLQESGPGLVKPSETLSLTCAVSGHSISHDHAWSWVRQPPGEGLEWIGFISYSGITNYNPSLQGRVTISRDNSKNTLYLQMNSLRAEDTAVYYCARSLARTTAMDYWGEGTLVTVSSASTKGPSVFPLAPSSKSTSGGTAALGCLVKDYFPEPVTVSWNSGALTSGVHTFPAVLQSSGLYSLSSVVTVPSSSLGTQTYICNVNHKPSNTKVDKKVEPKSCDKTHTCPPCPAPELRGGPKVFLFPPKPKDTLYIARTPEVTCVVVDVSHEDPEVKFNWYVDGVEVHNAKTKPREEQYNSTYRVVSVLTVLHQDWLNGKEYKCKVSNKALPAPIEKTISKAKGQPREPQVYTLPPSRDELTKNQVSLTCLVKGFYPSDIAVEWESNGQPENNYKTTPPVLDSDGSFFLYSKLTVDKSRWQQGNVFSCSVMHEALHYHVTKKDLSLSP
light: not shown
notes: copies: 2 + 2
- Kd [3]: 118 nM

B8: F1272 (antibody, name in EU numbering)
heavy: B7 heavy with H435D
light: not shown
notes: copies: 2 + 2
- Kd [3]: 171 nM

B9: IL6R-BP146/IL6R-L (antibody, human IgG1)
heavy: QVQLQESGPGLVKPSETLSLTCAVSGHSISHDHAWSWVRQPPGEGLEWIGFISYSGITNYNPSLQGRVTISRDNSKNTLYLQMNSLRAEDTAVYYCARSLARTTAMDYWGEGTLVTVSSASTKGPSVFPLAPSSKSTSGGTAALGCLVKDYFPEPVTVSWNSGALTSGVHTFPAVLQSSGLYSLSSVVTVPSSSLGTQTYICNVNHKPSNTKVDKKVEPKSCDKTHTCPPCPAPEYLGDDSVFLFPPKPKDTLMISRTPEVTCVVVDVSHEDPEVKFNWYVDGVEVHNAKTKPREEQYNSTYRVVSVLTVLHQDWLNGKEYKCKVSNAALPAPIEKTISKAKGQPREPQVYTLPPSRDELTKNQVSLTCLVKGFYPSDIAVEWESNGQPENNYKTTPPVLDSDGSFFLYSKLTVDKSRWQQGNVFSCSVMHEALHNHYTQESLSLSP
light: DIQMTQSPSSLSASVGDRVTITCRASQDISSYLNWYQQKPGKAPKLLIYYTSRLHSGVPSRFSGSGSGTDFTFTISSLQPEDIATYYCQQGNTLPYTFGQGTKVEIK
notes: positions are EU numbering, not positions on the entry
- KD (IIaR)/KD (IIb) [4]: 9.3
- Kd [5]: 1600 nM
- Kd [6]: 30000 nM
- KD (IIaH)/KD (IIb) [7]: 50

B11: IL6R-BP147/IL6R-L (antibody, human IgG1)
heavy: B9 heavy with A332K
light: B9 light
notes: EU numbering
- Kd [6]: 35000 nM

B12: IL6R-BP207/IL6R-L (antibody, human IgG1)
heavy: B9 heavy with E235D, Y236L, D239G, A328K, A332R
light: B9 light
notes: Anti-human IL-6 receptor IgG1 Fc variant
- Kd [8]: 65000 nM
- Kd [9]: 640 nM

B13: F1213 (antibody, human IgG1, kappa, name in EU numbering)
heavy: B7 heavy with R237L, K241S, L253N, A256S, K440Q, D442S
light: not shown
notes: copies: 2 + 2
- Kd [3]: 633 nM

B14: IL6R-BP182/IL6R-L (antibody, human IgG1)
heavy: B9 heavy with E235D, Y236L, D239G, P273G, Y298D, A328K, A332K
light: B9 light
notes: EU numbering
- Kd [5]: 2600 nM
- Kd [6]: 68000 nM

B15: F1254 (antibody, name in EU numbering)
heavy: B7 heavy with A256S, T309Q, K440R, D442E
light: not shown
notes: copies: 2 + 2
- Kd [3]: 64.2 nM

B17: F1269 (antibody, name in EU numbering)
heavy: B7 heavy with A256S, H435D
light: not shown
notes: copies: 2 + 2
- Kd [3]: 169 nM

B18: IL6R-BP152/IL6R-L (antibody, human IgG1)
heavy: B9 heavy with E235D, Y298D, A332R
light: B9 light
notes: EU numbering
- KD (IIaR)/KD (IIb) [4]: 19.5
- Kd [6]: 40000 nM
- KD (IIaH)/KD (IIb) [7]: 136

Next, values leading:

- BINDING AMOUNT (RU) [1]: 0.6 RU
B2: antibody containing VH3-IgG2-F939 and L(WT)-CK (antibody)
heavy: B1 heavy with A234R, S237K
light: not shown
notes: VH3-IgG2 with A235R/S239K/M252Y/N434Y/Y436V (EU numbering)

- BINDING AMOUNT (RU) [1]: 16.3 RU
B3: antibody containing VH3-IgG2 and L(WT)-CK (antibody)
heavy: B1 heavy with Y250M, Y432N, V434Y
light: not shown

- BINDING AMOUNT (RU) [1]: -1.7 RU
B5: antibody containing VH3-IgG4-F939 and L(WT)-CK (antibody)
heavy: B4 heavy with L234R, S238K
light: not shown
notes: VH3-IgG4 with L235R/S239K/M252Y/N434Y/Y436V (EU numbering)

- BINDING AMOUNT (RU) [2]: 108 RU
B6: VH3/L(WT)-IgG1-F140 (antibody)
heavy: B7 heavy with R237L, A256S, V310P, V438Y, K440Q, D442S
light: not shown
notes: copies: 2 + 2

- BINDING AMOUNT (RU) [2]: 243 RU
B10: antibody with VH3-IgG1-F157 heavy chain and L(WT)-CK light chain (antibody)
heavy: B9 heavy with Y236L, D239G, D240P, P259A, V310P, A328K, M430L, N436Y, E441K
light: not shown
notes: copies: 2 + 2

- Kd [9]: 39000 nM
B16: IL6R-BP210/IL6R-L (antibody, human IgG1)
heavy: B9 heavy with Y236L, H270D, P273G, A328K, A332R
light: B9 light
notes: as for B12

- BINDING AMOUNT (RU) [10]: -8 RU
B19: antibody with mPM1H-mIgG1-mF14 heavy chain (antibody)
heavy: DVQLQESGPVLVKPSQSLSLTCTVTGYSITSDHAWSWIRQFPGNKLEWMGYISYSGITTYNPSLKSRISITRDTSKNQFFLQLNSVTTGDTSTYYCARSLARTTAMDYWGQGTSVTVSSAKTTPPSVYPLAPGSAAQTNSMVTLGCLVKGYFPEPVTVTWNSGSLSSGVHTFPAVLQSDLYTLSSSVTVPSSTWPSETVTCNVAHPASSTKVDKKIVPRDCGCKPCICTVPEVSSVFIFPPKPKDVLYITLEPKVTCVVVDISKDDPEVQFSWFVDDVEVHTAQTQPREEQFNSTFRSVSELPIMHQDWLNGKEFKCRVNSAAFPAPIEKTISKTKGRPKAPQVYTIPPPKEQMAKDKVSLTCMITDFFPEDITVEWQWNGQPAENYKNTQPIMDTDGSYFVYSKLNVQKSNWEAGNTFTCSVLHEGLKNHHTEKSLSHSPGK
light: not shown
notes: also called mPM1-mIgG1-mF14; copies: 2 + 2

- BINDING AMOUNT (RU) [10]: -8.9 RU
B20: antibody with mPM1H-mIgG1-mF40 heavy chain (antibody)
heavy: B19 heavy with P231K, S235K, K429H, N430W
light: not shown
notes: also called mPM1-mIgG1-mF40; copies: 2 + 2

- BINDING AMOUNT (RU) [10]: -4.1 RU
B21: antibody with mPM1H-mIgG1-mF38 heavy chain (antibody)
heavy: B19 heavy with K429H, N430W
light: not shown
notes: also called mPM1-mIgG1-mF38; copies: 2 + 2

- BINDING AMOUNT (RU) [10]: -3.8 RU
B22: antibody with mPM1H-mIgG1-mF39 heavy chain (antibody)
heavy: B19 heavy with P231K, S235K
light: not shown
notes: also called mPM1-mIgG1-mF39; copies: 2 + 2
